From patent US9375425B2, “Combination of a C-Met antagonist and an aminoheteroaryl compound for the treatment of cancer” (Pierre Fabre Medicament, priority 2008, dated 2016)
Where two headings read alike, the source gives them in different places.

What was measured:
NCI-H441 cells = assay: In vivo activity of a combination of 224G11 and PF-02341066, NCI-H441 xenograft; parameters: species or system Athymic nude mice; settings: day 53 post first injection; 224G11 i.p. 2 mg then 1 mg twice a week; PF-2341066 50 mg/kg p.o.
Protocol: NCI-H441 cells from ATCC were routinely cultured in RPMI 1640 medium, 10% FCS, 1% L-Glutamine. Cells were split two days before engraftment so that they were in exponential phase of growth. Ten million NCI-H441 cells were engrafted to Athymic nude mice. […] For the antibody treatment, mice were treated i.p. with a loading dose of 2 mg of 224G11 Mab/mouse and then twice a week with 1 mg of antibody/mouse. 50 mg/kg of PF-2341066 was administered p.o. (oral gavage), daily for a week and then 5 days a week with a double dose the fifth day. The group of mice receiving both 224G11 and PF-2341066 was treated following the same modalities as the one described above for each compound. Tumor volume was measured twice a week and calculated by the formula: […]×length×width×height and animal weights were monitored every day over the period of treatment.
Statistical analysis was performed at each measured time using a Mann-Whitney test. In this experiment, mice of the control group were sacrificed on day 53 for ethical reasons. At day 53 post first injection, the average tumor volume of single modality treated groups is reduced by 64%, 73% and 93% for 224G11, PF-2341066 and 224G11+PF-2341066 respectively. […] No significant differences were observed between the 2 single modality treatment.

NCI-H441 NSCLC = assay: In vivo activity of 224G11 and PF-02341066 as single treatments, NCI-H441 s.c. xenograft; settings: NCI-H441 s.c. in Athymic nude mice; for tumors growth of treated mice (FIG. 1): 224G11 i.p. 2 mg loading dose then 1 mg twice a week, PF-02341066 50 mg/kg p.o.; for antitumoral activity, single treatments compared with each other: same regimens
Protocol: In order to verify that the NCI-H441 in vivo model available in the laboratory is sensible to both the 224G11 antibody and the PF-2341066 compound, immunocompromised mice engrafted subcutaneously with NCI-H441 were used. Briefly, NCI-H441 NSCLC cells from ATCC were cultured in RPMI 1640 medium, 10% FCS, 1% L-Glutamine. Cells were split two days before engraftment so that they were in exponential phase of growth. Ten million NCI-H441 cells were injected s.c. to Athymic nude mice. […] For the antibody treatment, mice were treated i.p. with a loading dose of 2 mg of 224G11 Mab/mouse and then twice a week with 1 mg of antibody/mouse. 50 mg/kg of PF-02341066 was administered p.o. (oral gavage), daily for a week and then 5 days a week with a double dose the fifth day. Treatment lasted during the whole experiment. Tumor volume was measured twice a week and calculated by the formula: π/6×length×width×height.

c-Met mutations = settings: cited from earlier work
[1] = In vivo activity of the anti-c-Met antibodies
c-Met = c-Met (Homo sapiens, UniProt P08581); assay: Inhibition of c-Met dimerization by the antibodies
Chain of c-Met (P08581 25-1390): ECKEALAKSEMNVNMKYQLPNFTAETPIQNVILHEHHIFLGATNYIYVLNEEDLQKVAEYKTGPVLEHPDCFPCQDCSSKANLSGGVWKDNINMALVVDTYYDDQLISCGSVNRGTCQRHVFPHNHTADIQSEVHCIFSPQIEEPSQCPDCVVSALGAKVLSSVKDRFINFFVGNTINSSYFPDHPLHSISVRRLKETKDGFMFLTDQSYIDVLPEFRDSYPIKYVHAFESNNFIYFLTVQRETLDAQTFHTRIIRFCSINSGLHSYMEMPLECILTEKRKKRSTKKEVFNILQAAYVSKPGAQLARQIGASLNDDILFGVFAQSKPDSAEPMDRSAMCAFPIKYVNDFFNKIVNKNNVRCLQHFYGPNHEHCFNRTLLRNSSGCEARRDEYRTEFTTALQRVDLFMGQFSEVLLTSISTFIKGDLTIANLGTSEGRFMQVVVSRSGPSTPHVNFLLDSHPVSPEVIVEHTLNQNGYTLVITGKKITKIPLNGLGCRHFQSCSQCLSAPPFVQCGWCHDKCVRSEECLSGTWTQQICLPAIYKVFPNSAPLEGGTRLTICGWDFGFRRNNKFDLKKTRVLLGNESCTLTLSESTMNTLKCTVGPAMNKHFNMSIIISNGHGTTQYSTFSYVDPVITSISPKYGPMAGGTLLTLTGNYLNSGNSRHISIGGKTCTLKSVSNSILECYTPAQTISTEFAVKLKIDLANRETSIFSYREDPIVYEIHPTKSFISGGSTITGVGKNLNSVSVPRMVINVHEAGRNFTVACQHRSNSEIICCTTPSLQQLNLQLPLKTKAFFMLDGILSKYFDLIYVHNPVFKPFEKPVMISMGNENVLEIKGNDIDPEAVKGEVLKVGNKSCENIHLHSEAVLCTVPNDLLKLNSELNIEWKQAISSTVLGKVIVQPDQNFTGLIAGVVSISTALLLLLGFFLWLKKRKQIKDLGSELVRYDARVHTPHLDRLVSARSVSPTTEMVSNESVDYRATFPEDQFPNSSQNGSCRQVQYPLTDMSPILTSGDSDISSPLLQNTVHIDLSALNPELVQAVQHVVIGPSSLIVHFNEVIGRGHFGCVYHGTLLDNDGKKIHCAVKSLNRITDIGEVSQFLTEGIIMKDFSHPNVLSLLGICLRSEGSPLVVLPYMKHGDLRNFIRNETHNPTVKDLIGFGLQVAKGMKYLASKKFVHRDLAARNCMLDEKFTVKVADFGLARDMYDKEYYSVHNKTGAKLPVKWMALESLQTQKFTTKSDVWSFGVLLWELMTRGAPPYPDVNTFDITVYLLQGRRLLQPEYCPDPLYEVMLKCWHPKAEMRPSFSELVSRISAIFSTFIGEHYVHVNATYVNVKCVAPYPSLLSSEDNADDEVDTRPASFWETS

| c-Met dimerization (c-Met) | Molecule | average tumor volume reduced by (NCI-H441 cells) [%] | tumors growth of treated mice (FIG. 1) (NCI-H441 NSCLC) | antitumoral activity, single treatments compared with each other (NCI-H441 NSCLC) | activity in vivo [1] | other results |
| --- | --- | --- | --- | --- | --- | --- |
|  | C[C@@H](Oc1cc(-c2cnn(C3CCNCC3)c2)cnc1N)c1c(Cl)ccc(F)c1Cl [PF-02341066, 3-[(R)-1-(2,6-Dichloro-3-fluoro-phenyl)-ethoxy]-5-(1-piperidin-4-yl-1H-pyrazol-4-yl)-pyridin-2-ylamine, reference compound] | 73 | significant difference in tumors growth | comparable antitumoral activities |  |  |
|  | Cc1[nH]c(/C=C2\C(=O)Nc3ccc(S(=O)(=O)N(C)c4cccc(Cl)c4)cc32)c(C)c1C(=O)N1CCN(C)CC1 [SU11274] |  |  |  |  | sensitivity of c-Met mutation to the agent (c-Met mutations; H1112Y mutation, decreased cell growth and motility): sensitive; sensitivity of c-Met mutation to the agent (c-Met mutations; L1213V mutation): resistant; sensitivity of c-Met mutation to the agent (c-Met mutations; M1268T mutation, decreased cell growth and motility): sensitive; sensitivity of c-Met mutation to the agent (c-Met mutations; Y1248 mutation): resistant |
| inhibit the c-Met dimerization | 224G11: monoclonal antibody antagonist to c-Met secreted by murine hybridoma CNCM I-3731; heavy chain SEQ ID No. 18, light chain SEQ ID No. 21 (antibody, V domains shown, mus musculus) VH: EVQLQQSGPELVKPGASVKISCKTSGYIFTAYTMHWVRQSLGESLDWIGGIKPNNGLANYNQKFKGKATLTVDKSSSTAYMDLRSLTSEDSAVYYCARSEITTEFDYWGQGTALTVSS VL: DIVLTQSPASLAVSLGQRATISCRASESVDSYANSFMHWYQQKPGQPPKLLIYRASNLESGIPARFSGSGSRTDFTLTINPVEADDVATYYCQQSKEDPLTFGSGTKLEMK | 64 | significant difference in tumors growth | comparable antitumoral activities | active in vivo |  |
| inhibit the c-Met dimerization | 227H1: monoclonal antibody antagonist to c-Met, hybridoma CNCM I-3732; heavy chain SEQ ID No. 19, light chain SEQ ID No. 22 (antibody, V domains shown, mus musculus) VH: EVQLQQSGPELVKPGASMKISCKASGYSFTDYTLNWVKQSHGKTLEWIGLINPYNGGTTYNQKFKGKATLTVDKSSSTAYMELLSLTSEDSAVYYCAREEITKDFDFWGQGTTLTVSS VL: GIVLTQSPASLAVSLGQRATISCRVSESIDTYGNSFIHWYQQKPGQPPKLLIYRASNLESGIPARFSGSGSRTDFTLTINPVEADDSATYYCQQSNEDPFTFGSGTKLEMK |  |  |  | active in vivo |  |
| inhibit the c-Met dimerization | 11E1: monoclonal antibody antagonist to c-Met, hybridoma CNCM I-3724; heavy chain SEQ ID No. 53, light chain SEQ ID No. 54 (antibody, V domains shown, mus musculus) VH: QVQLQQSGAELAKPGASVKMSCKASGYTFTSYWMNWVKQRPGQGLEWIGYINPTTGSTDYNQKLKDKATLTADKSSNTAYMQLSSLTSEDSAVYYCAIGGYGSWFAYWGQGTLVTVSA VL: QIVLTQSPAIMSASPGEKVTLTCSASSSVSSTYLYWYQQKPGSSPKLWIYTTSILASGVPARFSGSGSGTSYSLTISSMETEDAASYFCHQWSSYPFTFGSGTKLDIK |  |  |  | active in vivo |  |
| inhibit the c-Met dimerization | 223C4: monoclonal antibody antagonist to c-Met, hybridoma CNCM I-3786; heavy chain SEQ ID No. 20, light chain SEQ ID No. 23 (antibody, V domains shown, mus musculus) VH: EVLLQQSGPELVKPGASVKIPCKASGYTFTDYNMDWVKQSHGMSLEWIGDINPNNGGTIFNQKFKGKATLTVDKSSSTAYMELRSLTSEDTAVYYCARGRYVGYYYAMDYWGQGTSVTVSS VL: DIQMTQSPASLSVSVGETVTITCRASENIYSNLAWYQQKQGKSPQLLVYAATNLVDGVPSRFSGSGSGTQYSLKINSLQSEDFGSYYCQHFWGPPYTFGGGTKLEIK |  |  |  | active in vivo |  |
